# In PMC10899256 (2024):
# B1: LKB1 LFa peptide WT [human] / purified TBC1D23 PH domain (545–684) [human] (parent complex)
# chain 1: GADEDEDLFDIEDDIIYTQD
# chain 2: YDTDEIDSSSMSDDDRKEVVNIQTWINKPDVKHHFPCKEVKESGHMFPSHLLVTATHMYCLREIVSRKGLAYIQSRQALNSVVKITSKKKHPELITFKYGNSSASGIEILAIERYLIPNAGDATKAIKQQIMKVLDALES
# Variants of: B1
# Test: ITC; read off a plot
row,Ka,Variant
1,~4.6 10^4 M^-1,chain 1 F9L
2,~5 10^4 M^-1,chain 1 F9A
